Columns and labels:
KU80 [1] = molecular target: KU80 (UniProt P13010); assay: anti-FLAG co-IP, KU80 blot; details: reference: wild type, IR 6 Gy; sites S214
KU80 [2] = molecular target: KU80 (UniProt P13010); assay: anti-KU80 co-IP, MAD1 blot; details: reference: wild type, IR 6 Gy; sites S214

- binding against the reference (KU80 [1]): weaker
- binding against the reference (KU80 [2]): weaker
Substance: MAD1 (mitotic arrest-deficient protein 1) (from UniProt Q9Y6D9) S214A, IR 6 Gy

— PMC7476095
